Data from PMC9577226, “In vitro selection and optimization of high-affinity aptamer for milk allergen α-lactalbumin and its application in dual-mode detection”.

T1: alpha-lactalbumin (α-La) (Bos taurus (bovine milk), UniProt P00711 20-142)
T1 sequence: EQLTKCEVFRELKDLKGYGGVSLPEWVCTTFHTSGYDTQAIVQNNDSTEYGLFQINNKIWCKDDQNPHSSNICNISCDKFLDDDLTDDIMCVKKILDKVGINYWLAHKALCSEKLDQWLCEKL


Biological target: T1, alpha-lactalbumin (α-La)
Assay: fluorescence graphene oxide (GO) assay; 50 mM Tris-HCl, 5 mM KCl, 100 mM NaCl, 1 mM MgCl2, pH 7.4; 100 nM FAM-aptamer, 0-400 ug/ml α-La, 1 h in the dark, then GO 15 min; assay temperature not stated (SELEX at 37 °C)
Details: protein: commercial, label: 5'-FAM

| Binder | Kd (hairpin) [nM] | Kd (5' stem-loop (predicted)) [nM] |
| --- | --- | --- |
| AGCAGCACAGAGGTCAGATGGTGCTGCGAA (structured_DNA) [LA-1t] | 14.1 ± 4.15 |  |
| LA-9 (ssDNA) DNA: AGCAGCACAGAGGTCAGATGCTGGGCTGCGAATGACGAATAAATACGCCGTTTCAGACGGCCTATGCGTGCTACCGTGAA |  | 253 ± 32.2 |
| LA-2 (ssDNA) DNA: AGCAGCACAGAGGTCAGATGGGCTGCGAACAGTTGCATATGGCGCGACTCTAGGCGGGTCCCTATGCGTGCTACCGTGAA |  | 101 ± 21.3 |
| LA-10 (ssDNA) DNA: AGCAGCACAGAGGTCAGATGTAGTGCTGCGAAGTTGGCTCCGGCGGCGTCAGTCTAGCCGCCTATGCGTGCTACCGTGAA |  | 168 ± 28.9 |
| LA-11 (ssDNA) DNA: AGCAGCACAGAGGTCAGATGTGGGTGCTGCGAAAGGACGGCATGGGGTCCAAAAGACCCCCCTATGCGTGCTACCGTGAA |  | 175 ± 28.3 |
| LA-1 (ssDNA) DNA: AGCAGCACAGAGGTCAGATGGTGCTGCGAACTTAACGCAAGATAGGCTGGACGCGAGTCCCCTATGCGTGCTACCGTGAA |  | 92.6 ± 18 |
